From publication PMC2936295, “Integrative inference of gene-regulatory networks in Escherichia coli using information theoretic concepts and sequence analysis”

B1: Mlc-binding site (ptsG) (dsDNA)
DNA 1: TTGGCAAATTATTTTACTCTGTGTAATAAATAAAGGGCG
DNA 2: CGCCCTTTATTTATTACACAGAGTAAAATAATTCAGTGCCAA
B2: PdhR-binding site of pdhR-aceEF-lpd operon (dsDNA)
DNA 1: GCCGAAGTCAATTGGTCTTACCAATTTCATGTCTGTG
DNA 2: CACAGACATGAAATTGGTAAGACCAATTGACTTCGGC

Key:
PdhR-His [1] = biological target: T1, PdhR-His (Escherichia coli K-12 LJ110, UniProt P0ACL9 1-254); test: EMSA; no pyruvate; 18-46 pmol PdhR; EMSA, binding buffer and conditions as in ref 17 (not given) plus 0.1 mg/ml herring sperm DNA; 0.1 pmol probe (0.025 pmol for lipA); 6% polyacrylamide gel; pH; settings: protein: recombinant; tags: C-terminal Penta-His; chain copies: 2; label: 5' DY782 (strand 1); 5' DY682 (strand 2); as printed, strand 2 has 3 extra nt (CAG opposite a gap in strand 1), possible misprint; blunt ends
T1 sequence (P0ACL9 whole entry): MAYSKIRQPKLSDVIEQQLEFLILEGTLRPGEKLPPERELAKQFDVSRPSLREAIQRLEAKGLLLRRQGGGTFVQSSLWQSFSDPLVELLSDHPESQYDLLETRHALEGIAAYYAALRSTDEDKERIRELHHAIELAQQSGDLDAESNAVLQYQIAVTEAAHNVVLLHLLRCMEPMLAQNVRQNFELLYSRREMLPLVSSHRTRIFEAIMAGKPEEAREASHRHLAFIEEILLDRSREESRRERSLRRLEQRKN

PdhR-His [2] = biological target: T1, PdhR-His; test: EMSA; no pyruvate; 9-37 pmol PdhR; EMSA, binding buffer and conditions as in ref 17 (not given) plus 0.1 mg/ml herring sperm DNA; 0.1 pmol probe (0.025 pmol for lipA); 6% polyacrylamide gel; pH; settings: protein: recombinant; tags: C-terminal Penta-His; chain copies: 2; label: 5' DY682 (strand 1); 5' DY782 (strand 2); blunt

Binder	binding result (PdhR-His [1])	binding result (PdhR-His [2])
B1	no binding	–
B2	–	binds
